Measurements reported in patent US20170298096A1 (CANIMGUIDE THERAPEUTICS, published 2017).
Positions of bridges follow the written chain, without caps; N, C: chain ends. No end group written: not given here.

T1: His-tagged P3028 (human, also: His-tag, terminus and sequence not given here)
T1 construct: used in solution in the PEPSCAN (rampo) ELISA; also called PGE73; His-tag-P3028; not shown: His tag
T1 peptide: VFDEFKPLVEEPQNLIK

T2: His-tagged P3028 (human, not fully specified)
T2 construct: the tag is put first after 'PGE73=His-tag-P3028'; also called PGE73; not shown: His-tag
T2 peptide: {His‑tag}-VFDEFKPLVEEPQNLIK

T3: His-tagged P3028 peptide (PGE73) (human)
T3 construct: also called His-tag-P3028; not shown: His-tag
T3 peptide: VFDEFKPLVEEPQNLIK

T4: fusion protein of CD25 and the Fc-part of IgG (human, UniProt P01589 22-240, limits assumed)
T4 construct: also called rhuIL-2R alpha; rhuIL-2R
T4 sequence: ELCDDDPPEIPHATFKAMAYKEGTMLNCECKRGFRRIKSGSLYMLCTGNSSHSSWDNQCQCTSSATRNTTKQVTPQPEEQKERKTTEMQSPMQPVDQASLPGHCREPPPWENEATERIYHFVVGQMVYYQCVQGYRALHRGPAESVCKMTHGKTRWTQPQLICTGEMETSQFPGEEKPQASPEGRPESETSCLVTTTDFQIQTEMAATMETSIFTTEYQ

B1: albumin fragment LCTVATLR (peptide)
peptide: LCTVATLR
B2: Asp-N-generated albumin fragment 475-517 (peptide)
peptide: YLSVVLNQLCVLHEKTPVSDRVTKCCCTESLVNRRPFSALEV
B3: Asp-N-generated albumin fragment 348-388 (peptide)
peptide: VFLGMFLYEYARRHPDYSVVLLLRLAKTYETTLEKCCAAA
B4: lead cyclic peptide CLALNVMCG (peptide)
peptide: CLALNVMCG
modifications: bridge 1-8 (inferred)
notes: also called lead looped peptide
B5: P28 core (peptide)
peptide: FFVKLS
notes: also called peptide 32230; FFVKLS
B6: cyclic peptide CLRLNVFCG (peptide)
peptide: CLRLNVFCG
modifications: bridge 1-8 (inferred); not fully specified
B7: albumin fragment … (peptide)
peptide: LKECCEKPLLEK
B8: Asp-N-generated albumin fragment 283-319 (peptide)
peptide: LAKYICENQDSISSKLKECCEKPLLEKHCIAEVEN
B9: cyclic peptide CLRLIVMCG (peptide)
peptide: CLRLIVMCG
modifications: bridge 1-8 (inferred); not fully specified
B10: Asp-N-generated albumin fragment 96-112 (peptide)
peptide: DKLCTVATLRETYGEM
B11: albumin fragment FQNALLVR (peptide)
peptide: FQNALLVR
B12: albumin fragment … (peptide)
peptide: LDELRDEGK
B13: peptide 30680 (peptide)
peptide: KKLDTVMVKLQLMTER
notes: Four changes against P28R
B14: Asp-N-generated albumin fragment 62-79 (peptide)
peptide: DHVKLVNEVTEFAKTCVA
B15: albumin fragment DDNPNLPR (peptide)
peptide: DDNPNLPR
B16: Asp-N-generated albumin fragment 518-535 (peptide)
peptide: DETYVPKEFNAETFTHA
B17: P3028 (peptide)
peptide: VFDEFKPLVEEPQNLIK
B18: albumin fragment … (peptide)
peptide: RPCFSALEVDETYVPK
B19: albumin fragment … (peptide)
peptide: VPQVSTPTLVEVSR
B20: Asp-N-generated albumin fragment 495-535 (peptide)
peptide: RVTKCCTESLVNRRPCFSALEVDETYVPKEFNAETFTFHA
B21: cyclic peptide CLRLNVFCG (peptide)
peptide: CLRLNVFCG
modifications: bridge 1-8 (inferred)
B22: albumin fragment … (peptide)
peptide: FKDLGEENFK
B23: Asp-N-generated albumin fragment 536-572 (peptide)
peptide: ICTLSEKERQIKKQTALVELVKHKPKATKEQLKAVM
B24: Asp-N-generated albumin fragment 96-130 (peptide)
peptide: KLCTVATLRETYGEMADCCAKQEPERNECFLQHK
B25: Asp-N-generated albumin fragment 293-319 (peptide)
peptide: DSISSKLKECCEKPLLEKSHCIAEVEN
B26: cyclic peptide CLRLIVMCG (peptide)
peptide: CLRLIVMCG
modifications: bridge 1-8 (inferred)
B27: albumin fragment … (peptide)
peptide: SLHTLFGDK
B28: Asp-N-generated albumin fragment 586-609 (peptide)
peptide: DDKETCFAEEGKKLVAASQAALGL
B29: peptide 32814 (peptide)
peptide: RKLDTFFVKLSLFTERRR
notes: K1R and two added C-terminal R against P28R
B30: albumin fragment … (peptide)
peptide: VFDEFKPLVEEPQNLIK
B31: albumin fragment … (peptide)
peptide: YICENQDSISSK
B32: Asp-N-generated albumin fragment 364-398 (peptide)
peptide: YSVVLLLRLAKTYETTLEKCCAAADPHECYAKVF
B33: Asp-N-generated albumin fragment 495-517 (peptide)
peptide: DRVTKCCTESLVNRRPCFSALEV
B34: albumin fragment … (peptide)
peptide: KVPQVSTPTLVEVSR
B35: Asp-N-generated albumin fragment 37-79 (peptide)
peptide: LGEENFKALVLIAFAQYLQQCPFEDHVKLVNEVTEFAKTCVA
B36: cyclic peptide CLALNVMCG (peptide)
peptide: CLALNVMCG
modifications: bridge 1-8 (inferred); not fully specified
notes: also called lead cyclic peptide; lead looped peptide

Assays:
[1] = molecular target: Artificial Cell Surface (ACS): biotinylated cell surface proteins of PBMCs bound to streptavidin columns; assay: trypsin-digested dHSA adsorbed on ACS column, MALDI-TOF ms
[2] = molecular target: Artificial Cell Surface (ACS): biotinylated cell surface proteins of PBMCs bound to streptavidin columns; assay: Asp-N-digested dHSA adsorbed on ACS column, MALDI-TOF ms
His-tagged P3028 [3] = molecular target: T1, His-tagged P3028; assay: ELISA on chip with His-tag labeled P3028
Experimental: (§1) Positional scans were performed in each position of the lead cyclic peptide was replaced with each of the other 19 L-amino acids.

His-tagged P3028 [4] = molecular target: T1, His-tagged P3028; assay: positional scan / PEPSCAN ELISA
His-tagged P3028 [5] = molecular target: T2, His-tagged P3028; assay: chip ELISA with His-tag labelled P3028, positional scan
Experimental: as §1

[6] = molecular target: T3, His-tagged P3028 peptide (PGE73); assay: positional scan, PEPSCAN ELISA on chip
Experimental: as §1

[7] = molecular target: T4, fusion protein of CD25 and the Fc-part …; assay: ELISA, CD25-Fc on protein G coated plates, biotinylated IL-2 with or without P3028
His-tagged P3028 [8] = molecular target: T1, His-tagged P3028; assay: positional scan, ELISA on chip with His-tag labeled P3028
Experimental: as §1

His-tagged P3028 [9] = molecular target: T2, His-tagged P3028; assay: chip ELISA with His-tag labelled P3028
Experimental: as §1

Binder | Percent Absorbed [1] [%] | Percent Absorbed [2] [%] | also measured
B1 | 35 |  | 
B2 |  | 37 | 
B3 |  | 100 | 
B4 |  |  | binding result (His-tagged P3028 [3]): binds
B5 |  |  | binding result (His-tagged P3028 [4]): binds
B6 |  |  | binding result (His-tagged P3028 [5]): binds
B7 | 36 |  | 
B8 |  | 100 | 
B9 |  |  | binding result (His-tagged P3028 [5]): binds
B10 |  | 65 | 
B11 | 41 |  | 
B12 | 2 |  | 
B13 |  |  | binding result [6]: binds
B14 |  | 100 | 
B15 | 1 |  | 
B16 |  | 86 | 
B17 |  |  | binding result [7]: binds
B18 | 42 |  | 

Binder | Percent Absorbed [1] [%] | Percent Absorbed [2] [%] | also measured
B19 | 59 |  | 
B20 |  | 100 | 
B21 |  |  | binding result (His-tagged P3028 [8]): binds
B22 | 8 |  | 
B23 |  | 100 | 
B24 |  | 100 | 
B25 |  | 65 | 
B26 |  |  | binding result (His-tagged P3028 [8]): binds
B27 | 36 |  | 
B28 |  | 100 | 
B29 |  |  | binding result [6]: binds
B30 | 60 |  | 
B31 | 3 |  | 
B32 |  | 100 | 
B33 |  | 87 | 
B34 | 64 |  | 
B35 |  | 100 | 
B36 |  |  | binding result (His-tagged P3028 [9]): binds
